Laboratory results published in paper PMC12480533 (Nature Communications, 2025).

Target: the molecule itself
Assay: cryo-EM structure

B1: full-length human SLC30A10 (natural protein, UniProt Q6XR72 1-485, looked up)
chain: MGRYSGKTCRLLFMLVLTVAFFVAELVSGYLGNSIALLSDSFNMLSDLISLCVGLSAGYIARRPTRGFSATYGYARAEVVGALSNAVFLTALCFTIFVEAVLRLARPERIDDPELVLIVGVLGLLVNVVGLLIFQDCAAWFACCLRGRSRRLQQRQQLAEGCVPGAFGGPQGAEDPRRAADPTAPGSDSAVTLRGTSVERKREKGATVFANVAGDSFNTQNEPEDMMKKEKKSEALNIRGVLLHVMGDALGSVVVVITAIIFYVLPLKSEDPCNWQCYIDPSLTVLMVIIILSSAFPLIKETAAILLQMVPKGVNMEELMSKLSAVPGISSVHEVHIWELVSGKIIATLHIKYPKDRGYQDASTKIREIFHHAGIHNVTIQFENVDLKEPLEQKDLLLLCNSPCISKGCAKQLCCPPGALPLAHVNGCAEHNGGPSLDTYGSDGLSRRDAREVAIEVSLDSCLSDHGQSLNKTQEDQCYVNRTHF
  stoichiometry N: 2
